We go through four molecules from patent publication US20080027145A1, “Therapeutic Molecules and Methods for Generating and/or Selecting Same” (priority 2004, published 2008).

The target in experiment [1] is mouse A1 ΔC20 (mouse) (UniProt Q07440). In words: Biacore solution competition against immobilised mouse wtBimBH3. (In general: In SPR one partner is held on a chip, and binding of the other changes the refractive index at the surface.)
The target in a further experiment is Bcl-2, BCl-xL and Bcl-w. In words: solution competition on Biacore.
For experiment [2], the target named is mouse A1 ΔC20 (mouse) (UniProt Q07440). Briefly: solution competition on Biacore.
Experiment [3] deals with mouse Mcl-1 ΔN151 ΔC23 (mouse) (UniProt P97287). In words: Biacore solution competition against immobilised mouse wtBimBH3.
Sequence of mouse Mcl-1 ΔN151 ΔC23 (mouse) (P97287 other isoform, or with tags, fused parts or gaps mutant): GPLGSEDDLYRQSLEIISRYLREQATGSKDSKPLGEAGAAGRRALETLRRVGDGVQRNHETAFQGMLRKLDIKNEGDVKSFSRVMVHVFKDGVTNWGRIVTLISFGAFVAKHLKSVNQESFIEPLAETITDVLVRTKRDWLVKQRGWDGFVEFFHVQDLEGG

Sequence of mouse A1 ΔC20 (mouse) (Q07440 other isoform, or with tags, fused parts or gaps mutant): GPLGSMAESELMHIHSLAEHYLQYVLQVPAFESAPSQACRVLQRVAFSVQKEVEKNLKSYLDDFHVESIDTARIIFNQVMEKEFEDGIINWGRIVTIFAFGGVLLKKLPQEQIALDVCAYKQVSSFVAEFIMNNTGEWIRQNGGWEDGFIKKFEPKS

On to DIIRNIARHLAQVGDSMDRSIPPG [Bid (81-104) BH3 peptide, human], for which, in the experiment with mouse A1 ΔC20 (mouse) [1], the IC50 (in general, the concentration that gives 50% inhibition) worked out at 9.3 nM.

Take NLWAAQRYGRELRRMSDEFVDSFKKG [Bad (103-128) BH3 peptide, human]: the half-maximal inhibitory concentration (IC50) with Bcl-2, BCl-xL and Bcl-w is 5.3 to 30 nM; in the experiment with mouse A1 ΔC20 (mouse) [2] it was 15000 nM; in the experiment with mouse A1 ΔC20 (mouse) [1] it was 15000 nM; in experiment [3] it was over 100000 nM.

With HRAEVQIARKLQCIADQFHRLHTQ [m Bmf (128-151) BH3 peptide], the IC50 in the experiment with mouse A1 ΔC20 (mouse) [1] is 1800 nM; in experiment [3], 1100 nM.

On to PAELEVECATQLRRFGDKLNFRQKLL [Noxa (18-43) BH3 peptide, human], for which the IC50 with mouse A1 ΔC20 (mouse) [1] worked out at 180 nM; in experiment [3], 24 nM.
